Measured values taken from publication PMC4713166, “Chicken scFvs with an Artificial Cysteine for Site-Directed Conjugation” (PLoS ONE, 2016).

B1: charge-variant artificial H13 cysteine-mutant scFv RCK, scFv-C kappa fusion protein cotinine conjugate (scFv, V domains shown)
VH: AVTLDESGGGLRCKGGALSLVCKASGFTFSSYDMGWVRQAPGKGLEWVAGIDDDGSYPNYGPAVKGRATISRDNGQSTVRLQLNNLRAEDTGTYFCAKGIESDSDGYMTAEEIDAWGHGTEVIVSS
VL: ALTQPSSVSANLGGTVKITCSGGYSYYGWYQQKSPGSAPVTVIYESTKRPSNIPSRFSGSTSGSTGTLTITGVQADDAAVYYCGSWDSSSVGIFGAGTTLTVL
notes: VL as in m2; VH as in m6 (GenBank KP764767 with cysteine at Kabat H13), the flanking residues of H13 changed from QCP to RCK; source: HEK293F, transfected, purified (KappaSelect); reduced with TCEP-HCl, treated with dehydroascorbic acid, conjugated with GMBS-coupled cotinine
B2: artificial cysteine-mutant scFv H16, scFv-pIII fusion protein displayed on phage (scFv, V domains shown)
VH: AVTLDESGGGLQTPGCALSLVCKASGFTFSSYDMGWVRQAPGKGLEWVAGIDDDGSYPNYGPAVKGRATISRDNGQSTVRLQLNNLRAEDTGTYFCAKGIESDSDGYMTAEEIDAWGHGTEVIVSS
VL: ALTQPSSVSANLGGTVKITCSGGYSYYGWYQQKSPGSAPVTVIYESTKRPSNIPSRFSGSTSGSTGTLTITGVQADDAAVYYCGSWDSSSVGIFGAGTTLTVL
notes: VL as in m2; Order VL-linker-VH worked out as for m2
B3: artificial cysteine-mutant scFv L5, scFv-pIII fusion protein displayed on phage (scFv, V domains shown)
VH: AVTLDESGGGLQTPGGALSLVCKASGFTFSSYDMGWVRQAPGKGLEWVAGIDDDGSYPNYGPAVKGRATISRDNGQSTVRLQLNNLRAEDTGTYFCAKGIESDSDGYMTAEEIDAWGHGTEVIVSS
VL: ALCQPSSVSANLGGTVKITCSGGYSYYGWYQQKSPGSAPVTVIYESTKRPSNIPSRFSGSTSGSTGTLTITGVQADDAAVYYCGSWDSSSVGIFGAGTTLTVL
notes: VH as in m2; Order VL-linker-VH worked out as for m2
B4: artificial cysteine-mutant scFv L6, scFv-pIII fusion protein displayed on phage (scFv, V domains shown)
VH: AVTLDESGGGLQTPGGALSLVCKASGFTFSSYDMGWVRQAPGKGLEWVAGIDDDGSYPNYGPAVKGRATISRDNGQSTVRLQLNNLRAEDTGTYFCAKGIESDSDGYMTAEEIDAWGHGTEVIVSS
VL: ALTCPSSVSANLGGTVKITCSGGYSYYGWYQQKSPGSAPVTVIYESTKRPSNIPSRFSGSTSGSTGTLTITGVQADDAAVYYCGSWDSSSVGIFGAGTTLTVL
notes: as for B3
B5: artificial cysteine-mutant scFv L5, scFv-C kappa fusion protein cotinine conjugate (scFv, V domains shown)
VH: AVTLDESGGGLQTPGGALSLVCKASGFTFSSYDMGWVRQAPGKGLEWVAGIDDDGSYPNYGPAVKGRATISRDNGQSTVRLQLNNLRAEDTGTYFCAKGIESDSDGYMTAEEIDAWGHGTEVIVSS
VL: ALCQPSSVSANLGGTVKITCSGGYSYYGWYQQKSPGSAPVTVIYESTKRPSNIPSRFSGSTSGSTGTLTITGVQADDAAVYYCGSWDSSSVGIFGAGTTLTVL
notes: VL as in m3: GenBank KP764766 with Kabat residue L5 replaced with cysteine; VH as in m2; that it was a cotinine conjugate of the scFv-C kappa protein is inferred from that detection; also called L5 mutant scFv; source: HEK293F, transfected, purified (KappaSelect); conjugated with GMBS-coupled cotinine
B6: charge-variant artificial H13 cysteine-mutant scFv DCE, scFv-C kappa fusion protein cotinine conjugate (scFv, V domains shown)
VH: AVTLDESGGGLDCEGGALSLVCKASGFTFSSYDMGWVRQAPGKGLEWVAGIDDDGSYPNYGPAVKGRATISRDNGQSTVRLQLNNLRAEDTGTYFCAKGIESDSDGYMTAEEIDAWGHGTEVIVSS
VL: ALTQPSSVSANLGGTVKITCSGGYSYYGWYQQKSPGSAPVTVIYESTKRPSNIPSRFSGSTSGSTGTLTITGVQADDAAVYYCGSWDSSSVGIFGAGTTLTVL
notes: VL as in m2; VH as in m6 (GenBank KP764767 with cysteine at Kabat H13), the flanking residues of H13 changed from QCP to DCE; also called DEC (as printed once); source: HEK293F, transfected, purified (KappaSelect); reduced with TCEP-HCl, treated with dehydroascorbic acid, conjugated with GMBS-coupled cotinine
B7: charge-variant artificial H13 cysteine-mutant scFv ECD, scFv-C kappa fusion protein cotinine conjugate (scFv, V domains shown)
VH: AVTLDESGGGLECDGGALSLVCKASGFTFSSYDMGWVRQAPGKGLEWVAGIDDDGSYPNYGPAVKGRATISRDNGQSTVRLQLNNLRAEDTGTYFCAKGIESDSDGYMTAEEIDAWGHGTEVIVSS
VL: ALTQPSSVSANLGGTVKITCSGGYSYYGWYQQKSPGSAPVTVIYESTKRPSNIPSRFSGSTSGSTGTLTITGVQADDAAVYYCGSWDSSSVGIFGAGTTLTVL
notes: VL as in m2; VH as in m6 (GenBank KP764767 with cysteine at Kabat H13), the flanking residues of H13 changed from QCP to ECD; source: HEK293F, transfected, purified (KappaSelect); reduced with TCEP-HCl, treated with dehydroascorbic acid, conjugated with GMBS-coupled cotinine
B8: charge-variant artificial H13 cysteine-mutant scFv ECE, scFv-C kappa fusion protein cotinine conjugate (scFv, V domains shown)
VH: AVTLDESGGGLECEGGALSLVCKASGFTFSSYDMGWVRQAPGKGLEWVAGIDDDGSYPNYGPAVKGRATISRDNGQSTVRLQLNNLRAEDTGTYFCAKGIESDSDGYMTAEEIDAWGHGTEVIVSS
VL: ALTQPSSVSANLGGTVKITCSGGYSYYGWYQQKSPGSAPVTVIYESTKRPSNIPSRFSGSTSGSTGTLTITGVQADDAAVYYCGSWDSSSVGIFGAGTTLTVL
notes: VL as in m2; VH as in m6 (GenBank KP764767 with cysteine at Kabat H13), the flanking residues of H13 changed from QCP to ECE; source: HEK293F, transfected, purified (KappaSelect); reduced with TCEP-HCl, treated with dehydroascorbic acid, conjugated with GMBS-coupled cotinine
B9: artificial cysteine-mutant scFv H13 (QCP), scFv-pIII fusion protein displayed on phage (scFv, V domains shown)
VH: AVTLDESGGGLQCPGGALSLVCKASGFTFSSYDMGWVRQAPGKGLEWVAGIDDDGSYPNYGPAVKGRATISRDNGQSTVRLQLNNLRAEDTGTYFCAKGIESDSDGYMTAEEIDAWGHGTEVIVSS
VL: ALTQPSSVSANLGGTVKITCSGGYSYYGWYQQKSPGSAPVTVIYESTKRPSNIPSRFSGSTSGSTGTLTITGVQADDAAVYYCGSWDSSSVGIFGAGTTLTVL
notes: as for B2
B10: artificial cysteine-mutant scFv L7, scFv-pIII fusion protein displayed on phage (scFv, V domains shown)
VH: AVTLDESGGGLQTPGGALSLVCKASGFTFSSYDMGWVRQAPGKGLEWVAGIDDDGSYPNYGPAVKGRATISRDNGQSTVRLQLNNLRAEDTGTYFCAKGIESDSDGYMTAEEIDAWGHGTEVIVSS
VL: ALTQCSSVSANLGGTVKITCSGGYSYYGWYQQKSPGSAPVTVIYESTKRPSNIPSRFSGSTSGSTGTLTITGVQADDAAVYYCGSWDSSSVGIFGAGTTLTVL
notes: as for B3

How the values were obtained:
[1] = target: T1, recombinant human Fc-tagged PSA (Homo sapiens, UniProt P07288); assay: ELISA; enzyme immunoassay: recombinant human Fc-tagged PSA coated on the plate (0.1 M NaHCO3 pH 8.6, overnight at 4 C), blocked with 3% BSA in PBS; 250 ng cotinine-conjugated scFv-C kappa fusion protein in 50 ul, 1 h at 37 C; HRP-conjugated anti-cotinine IgG1 or HRP-conjugated anti-human C kappa antibody, TMB, optical density at 450 nm; conditions: both partners purified
T1 construct: prostate-specific antigen (PSA), human; also called prostate-specific antigen; recombinant Fc-tagged PSA

[2] = target: T1, recombinant human Fc-tagged PSA; assay: ELISA; phage enzyme immunoassay: recombinant human Fc-tagged PSA coated on the microtiter plate (5 ug/ml in PBS, overnight at 4 C), blocked with 3% BSA in PBS; scFv-displaying phages in culture supernatant; HRP-conjugated anti-M13 antibody, ABTS, optical density at 405 nm; conditions: one partner purified

T1 sequence (P07288 18-261): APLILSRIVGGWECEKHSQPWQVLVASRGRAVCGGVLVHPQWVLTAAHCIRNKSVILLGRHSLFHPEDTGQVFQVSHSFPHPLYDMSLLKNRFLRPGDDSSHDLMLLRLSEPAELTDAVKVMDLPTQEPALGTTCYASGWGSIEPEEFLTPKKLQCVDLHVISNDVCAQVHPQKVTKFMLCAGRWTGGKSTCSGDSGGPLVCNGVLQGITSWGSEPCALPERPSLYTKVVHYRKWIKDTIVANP

| Binder | binding result [1] | binding result [2] |
| --- | --- | --- |
| B1 | binds |  |
| B2 |  | binds |
| B3 |  | binds |
| B4 |  | binds |
| B5 | binds |  |
| B6 | binds |  |
| B7 | binds |  |
| B8 | binds |  |
| B9 |  | binds |
| B10 |  | binds |
